{
  "source": "patent US20260167733A1",
  "about": "(CLEVELAND CLINIC FOUNDATION, published 2026)",
  "binders": {"B1": {"name": "Anti-AMHR2-ED 4D12G1 Chimeric antibody (antibody, human IgG1, kappa, V domains shown)", "VH": "DVKLVESGGGLVKLGGSLKLSCAASGFTFSRYFMSWVRQTPEKRLELVAAINSDGGRTYYPDTVKGRFTISRDNAKNTLYLQMSSLKSEDTALYYCTRHIYSYYEDYFDYWGQGTTLTVSS", "VL": "DVVMTQTPLSLPVSLGDQASISCRSSQSLVHSNGNTYLHWYLQKPGQSPKLLIYKVSKRFSGVPDRFSGSGSGTDFTLKISRVEAEDLGVYFCSQSTHVYTFGGGTKLEIKR", "notes": "also called chimeric 4D12G1 mAb; Chimeric 4D12G1"}, "B2": {"name": "Anti-AMHR2-ED 4D12G1 Variant 5 antibody (antibody, human IgG1, kappa)", "heavy": "not shown", "light": "DVVMTQTPLSSPVTLGQPASISCRSSQSLVHSNGNTYLHWYQQRPGQPPKLLIYKVSKRFSGVPDRFSGSGSGTDFTLKISRVEAEDVGVYFCSQSTHVYTFGQGTKLEIKRTVAAPSVFIFPPSDEQLKSGTASVVCLLNNFYPREAKVQWKVDNALQSGNSQESVTEQDSKDSTYSLSSTLTLSKADYEKHKVYACEVTHQGLSSPVTKSFNRGEC", "notes": "Humanized variant of 4D12G1; also called humanized 4D12G1 variant 5 mAb; 4D12G1 variant 5 mAb"}, "B3": {"name": "Anti-AMHR2-ED 4D12G1 Variant 6 antibody (antibody, human IgG1, kappa)", "heavy": "not shown", "light": "B2 light", "notes": "Humanized variant of 4D12G1; also called humanized 4D12G1 variant 6 mAb; Hu4D12G1-6"}},
  "data": [
    {"biological_target": "T1, human AMHR2 on AMHR2-OVCAR8 cells (human, UniProt Q16671 18-573)", "T1 construct": "whole, on cells; Also the target in IHC of human HGSOC tumour tissue sections; also called AMHR2-ED on human EOC cells; anti-Mullerian hormone receptor type II", "T1 sequence (looked up)": "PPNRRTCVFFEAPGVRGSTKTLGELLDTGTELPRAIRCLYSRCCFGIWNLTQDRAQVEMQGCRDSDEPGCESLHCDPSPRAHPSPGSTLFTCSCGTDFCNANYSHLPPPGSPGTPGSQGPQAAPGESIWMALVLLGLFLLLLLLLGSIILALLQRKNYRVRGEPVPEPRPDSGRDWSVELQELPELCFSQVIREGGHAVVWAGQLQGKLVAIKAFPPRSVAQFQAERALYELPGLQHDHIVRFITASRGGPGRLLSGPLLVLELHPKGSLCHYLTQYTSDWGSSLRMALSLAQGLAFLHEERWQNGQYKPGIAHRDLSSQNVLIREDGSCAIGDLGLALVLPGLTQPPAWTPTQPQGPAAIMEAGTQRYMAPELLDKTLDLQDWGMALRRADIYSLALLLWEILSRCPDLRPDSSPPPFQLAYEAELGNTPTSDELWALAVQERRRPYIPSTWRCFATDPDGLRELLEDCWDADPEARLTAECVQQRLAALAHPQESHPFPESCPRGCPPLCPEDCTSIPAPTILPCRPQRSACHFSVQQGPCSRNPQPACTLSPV", "test": "flow cytometry on AMHR2-OVCAR8 cells", "description": "The human AMHR2-OVCAR8 cells expressing high levels of human AMHR2 were treated with Fc-receptor block (BD Biosciences, San Jose, CA) and immunostained with 5 μg of a human isotype control IgG1 mAb as well as with 5 μg of the chimeric 4D12G1 mAb and variants 5 and 6 of the humanized 4D12G1 mAb. Cells were then treated with FITC-labeled goat anti-human IgG (BD Biosciences) and analyzed by flow cytometry using a FACSAria II flow cytometer and BDFacsDiva software (BD Biosciences). […] Insets show darkly staining regions of AMHR2-ED expression which occurs primarily in the parenchyma, with some staining also visible in the stroma.", "values": [
      {"binder": "B1", "binding result": "binds"},
      {"binder": "B2", "binding result": "binds"},
      {"binder": "B3", "binding result": "binds"}
    ]}
  ]
}
